In patent publication US20220017608A1:

Columns and labels:
Assay in all cases: Biacore 3000, 25 °C, alanine scan: N-biotinylated peptide on SA chip, G1 Fab titrated; fold loss versus wild-type 25-37 fragment
G33A = molecular target: T1, G33A
T1 sequence (peptide, N-terminal biotin): NNFVPTNVASKAF

S34A = molecular target: T2, S34A
T2 sequence (peptide, N-terminal biotin): NNFVPTNVGAKAF

F37A = molecular target: T3, F37A
T3 sequence (peptide, N-terminal biotin): NNFVPTNVGSKAA

Fold loss in affinity (G33A): 504 fold
Fold loss in affinity (S34A): 10.9 fold
Fold loss in affinity (F37A): 339 fold
B1: Fab fragments of antibody G1 (Fab, V domains shown)
VH: EVQLVESGGGLVQPGGSLRLSCAASGFTFSNYWISWVRQAPGKGLEWVAEIRSESDASATHYAEAVKGRFTISRDNAKNSLYLQMNSLRAEDTAVYYCLAYFDYGLAIQNYWGQGTLVTVSS
VL: EIVLTQSPATLSLSPGERATLSCKASKRVTTYVSWYQQKPGQAPRLLIYGASNRYLGIPARFSGSGSGTDFTLTISSLEPEDFAVYYCSQSYNYPYTFGQGTKLEIK
